Experimental data as given in paper PMC11225796.
Read-outs that look alike come from different tables or passages of the source.

Tests used:
Assay in all cases: cross-linking
MBP-Z(6His) [1] = target: MBP-Z(6His)
MBP-Z(6Tyr) [2] = target: MBP-Z(6Tyr)
MBP-Z(6His) [3] = target: MBP-Z(6His); remark: listed apart in the source
MBP-Z(6Tyr) [4] = target: MBP-Z(6Tyr); remark: listed apart in the source
MBP-Z(6His) [5] = target: MBP-Z(6His); remark: listed apart in the source
MBP-Z(6Tyr) [6] = target: MBP-Z(6Tyr); remark: listed apart in the source
MBP-Z(6Tyr) [7] = target: MBP-Z(6Tyr); remark: listed apart in the source
MBP-Z(6His) [8] = target: MBP-Z(6His); remark: listed apart in the source
MBP-Z(6Tyr) [9] = target: MBP-Z(6Tyr); remark: listed apart in the source
MBP-Z(6His) [10] = target: MBP-Z(6His); remark: listed apart in the source

Row | Substance | cross-linking efficiency (day 0) (MBP-Z(6His) [1]) | cross-linking efficiency (day 1) (MBP-Z(6His) [1]) | cross-linking efficiency (day 3) (MBP-Z(6His) [1]) | cross-linking efficiency (day 5) (MBP-Z(6His) [1]) | cross-linking efficiency (MBP-Z(6Tyr) [2]) | cross-linking efficiency (MBP-Z(6His) [3]) | cross-linking efficiency (MBP-Z(6Tyr) [4]) | cross-linking efficiency (MBP-Z(6His) [5]) | cross-linking efficiency (MBP-Z(6Tyr) [6]) | cross-linking efficiency (1 mM Na2SiO3) (MBP-Z(6Tyr) [6]) | cross-linking efficiency (no Na2SiO3) (MBP-Z(6Tyr) [6]) | cross-linking efficiency (MBP-Z(6His) [1]) | cross-linking efficiency (1 mM Na2SiO3) (MBP-Z(6His) [1]) | cross-linking efficiency (no Na2SiO3) (MBP-Z(6His) [1]) | cross-linking efficiency (MBP-Z(6Tyr) [7]) | cross-linking efficiency (MBP-Z(6His) [8]) | cross-linking efficiency (MBP-Z(6Tyr) [9]) | cross-linking efficiency (MBP-Z(6His) [10])
1 | Zspa affibody with FSY at site 36, Afb(36FSY) (designed binder) | 60.2% | 47.7% | 27.5% | 17.9% |  |  |  |  |  |  |  |  |  |  |  |  |  | 
2 | Zspa affibody with PFY at site 36, Afb(36PFY) (designed binder) |  |  |  |  | 26.8% | 37.4% | 44.5% | 21.3% | 27.5% | 45.7% | 24.7% | 5% | 18.8% | 36.9% | 5.3% | 21.4% | 33.7% | 35.3%
